# According to PMC11347163, “Structural analysis of the BisI family of modification dependent restriction endonucleases”:
# What was measured:
# [1] = target: NhoI (Nitrolancea hollandica); assay: crystal structure; sitting drop vapor diffusion at 18°C; proteins crystallised without DNA and as specific complexes with tetra-methylated GCNGC dsDNA, with Ca2+
# [2] = target: Eco15I_Ntd (N-terminal catalytic domain of Eco15I) (Escherichia coli strain 541-15); assay: as above
# [3] = target: T1, Eco15I_Ctd (C-terminal domain of Eco15I) (UniProt A0A0L6ZWS4); assay: SPR; 1 mM Ca2+; 50 mM KCl; SPR: 20 mM HEPES pH 7.8, 50 or 150 mM KCl, 1 mM CaCl2, 1 mM DTT, 0.05% Tween-20, 25 C; EMSA: 20 mM HEPES pH 7.8, 50 mM KCl, 1 mM DTT, 1 mM CaCl2, on ice 30 min, unlabeled unmodified oligo or salmon sperm DNA competitor; conditions: protein: recombinant; label: 5' biotin
# T1 sequence: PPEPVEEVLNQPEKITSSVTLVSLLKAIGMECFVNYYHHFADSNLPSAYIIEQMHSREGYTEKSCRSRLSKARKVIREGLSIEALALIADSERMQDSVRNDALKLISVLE
# [4] = target: T2, Eco15I_Ntd (N-terminal catalytic domain of Eco15I) (UniProt A0A0L6ZWS4); assay: as above; conditions: protein: recombinant; tags: 6xHis-SUMO removed by Ulp1; chain copies: 2; label: 5' biotin
# T2 sequence: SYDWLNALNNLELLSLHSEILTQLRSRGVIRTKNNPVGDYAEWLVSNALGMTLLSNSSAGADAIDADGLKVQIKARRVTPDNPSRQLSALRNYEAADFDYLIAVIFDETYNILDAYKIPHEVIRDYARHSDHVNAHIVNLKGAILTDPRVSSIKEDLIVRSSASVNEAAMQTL
# [5] = target: T2, Eco15I_Ntd (N-terminal catalytic domain …); assay: crystal structure; Ca2+ in active site; SPR: 20 mM HEPES pH 7.8, 50 or 150 mM KCl, 1 mM CaCl2, 1 mM DTT, 0.05% Tween-20, 25 C; EMSA: 20 mM HEPES pH 7.8, 50 mM KCl, 1 mM DTT, 1 mM CaCl2, on ice 30 min, unlabeled unmodified oligo or salmon sperm DNA competitor; conditions: protein: recombinant; tags: 6xHis-SUMO removed by Ulp1; chain copies: 2; blunt
# NhoI = target: T3, NhoI (UniProt I4EG67); assay: as above; conditions: protein: recombinant; tags: 6xHis-SUMO removed by Ulp1; chain copies: 2; blunt
# T3 sequence: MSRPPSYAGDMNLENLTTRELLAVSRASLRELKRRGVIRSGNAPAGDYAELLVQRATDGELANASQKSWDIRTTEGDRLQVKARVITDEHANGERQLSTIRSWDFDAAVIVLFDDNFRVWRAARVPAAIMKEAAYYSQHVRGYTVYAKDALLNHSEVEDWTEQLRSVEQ
molecule,measurement,setting,value
NhoI (enzyme),stoichiometry N,[1],2
Eco15I_Ntd (N-terminal catalytic domain of Eco15I) (domain or fragment),stoichiometry N,[2],2
"SPR duplex, four 5mC in GCNGC (dsDNA, 5mC at both internal and both external cytosines) DNA 1: CGGTTGAGCAGCACCTCAGA DNA 2: TCTGAGGTGCTGCTCAACCG",binding result,[3],no binding
same,binding result,[4],binds
"Eco15I_Ntd co-crystal duplex, tetramethylated GCAGC (dsDNA, 5mC at positions 4 and 7 of strand 1; 5mC at positions 4 and 7 of strand 2) DNA 1: AAGCAGCAA DNA 2: TTGCTGCTT",binding result,[5],binds
"NhoI co-crystal duplex, tetramethylated GCAGC (dsDNA, 5mC at positions 4 and 7 of strand 1; 5mC at positions 4 and 7 of strand 2) DNA 1: CTGCAGCTC DNA 2: GAGCTGCAG",binding result,NhoI,binds
